Values belong to the binder of their own block, whether it stands above or below them. Starred links: 1 amine or outer side, 2 acyl side, 3 side chain; linkers in the order of their positions; H or OH if unused. Positions of bridges follow the written chain, without caps; N, C: chain ends. Non-standard residues stand in square brackets, D forms with d. Primed or numbered codes have the meaning given here. trans‑Pro(4-(4-fluorobenzyl)) = trans-4-(4-fluorobenzyl)-L-proline, O=C([C@@H]1C[C@@H](Cc2ccc(F)cc2)CN1[*:1])[*:2]; Pro(cis-4-Ph) = O=C(O)[C@@H]1C[C@H](c2ccccc2)CN1; NMeF = CN[C@@H](Cc1ccccc1)C(=O)O; PEG12′ = C-terminal PEG12 spacer; NMeNle = CCCC[C@H](NC)C(=O)O; NMeA = CN[C@@H](C)C(=O)O; Dab = NCC[C@H](N)C(=O)O; Sar = CNCC(=O)O
Key:
hPDL1(19-239)-TVMV-His [1] = biological target: T1, hPDL1(19-239)-TVMV-His (human, UniProt Q9NZQ7 19-239); assay: HTRF competition, inhibitor titrated against PD-1-Ig binding to PD-L1-His
T1 construct: The text says amino acids 18-239, the construct name says 19-239; also called PD-L1-His; PD-L1-TVMV-His
Description: (§1) All binding studies were performed in an HTRF assay buffer consisting of dPBS supplemented with 0.1% (w/v) bovine serum albumin and 0.05% (v/v) Tween-20. […] PD-L1 fusion proteins from either human, cynomologous macaques, or mouse were used. HTRF detection was achieved using europium crypate-labeled anti-Ig monoclonal antibody (1 nM final) and allophycocyanin (APC) labeled anti-His monoclonal antibody (20 nM final). Antibodies were diluted in HTRF detection buffer and 5 μl was dispensed on top of binding reaction. The reaction was allowed to equilibrate for 30 minutes and signal (665 nm/620 nm ratio) was obtained using an EnVision fluorometer. […]
T1 sequence (Q9NZQ7 other isoform, or with tags, fused parts or gaps limits assumed): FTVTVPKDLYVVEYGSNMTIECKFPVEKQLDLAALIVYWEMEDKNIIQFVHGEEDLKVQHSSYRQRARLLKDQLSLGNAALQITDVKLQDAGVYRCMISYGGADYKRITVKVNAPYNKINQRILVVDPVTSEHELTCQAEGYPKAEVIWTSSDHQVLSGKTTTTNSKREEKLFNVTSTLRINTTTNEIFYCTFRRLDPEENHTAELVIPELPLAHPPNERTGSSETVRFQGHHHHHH

hPDL1(19-239)-TVMV-His [2] = biological target: T1, hPDL1(19-239)-TVMV-His; assay: as above; remark: listed apart in the source
Description: as §1
HTRF Experiments were performed essentially as outlined supra. Variant macrocyclic peptides were created as outlined herein.

human PD-L1 on cells [3] = biological target: human PD-L1 on cells (human, UniProt Q9NZQ7 19-290); assay: cell-based or functional assay
Target sequence in this assay (Q9NZQ7 19-290): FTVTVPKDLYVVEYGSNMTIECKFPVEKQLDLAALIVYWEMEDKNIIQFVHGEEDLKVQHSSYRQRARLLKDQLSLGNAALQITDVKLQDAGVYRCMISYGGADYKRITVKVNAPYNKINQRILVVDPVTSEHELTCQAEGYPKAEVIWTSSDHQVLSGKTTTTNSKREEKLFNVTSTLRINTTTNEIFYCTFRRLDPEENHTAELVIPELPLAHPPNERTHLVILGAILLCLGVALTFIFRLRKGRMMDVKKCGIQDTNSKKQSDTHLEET

human PD-L1 on cells [4] = biological target: T2, human PD-L1 on cells (human, UniProt Q9NZQ7 19-290); assay: cell binding assay (CBA): PE-labelled PD-1-Ig on cells over-expressing human PD-L1
T2 construct: whole, on cells; The same entry serves as PD-L1 on PBMC in the CMV recall assay; also called hPD-L1; LK35.2-hPD-L1
T2 sequence (Q9NZQ7 19-290): as above

hPDL1(19-239)-TVMV-His [5] = biological target: T3, hPDL1(19-239)-TVMV-His (human, UniProt Q9NZQ7 19-239); assay: HTRF competition of PD-1-Ig binding to PD-L1-His
T3 construct: The text says amino acids 18-239, the construct name says 19-239; The entry includes the TVMV site and the His tag; also called PD-L1-His; PD-L1-TVMV-His
T3 sequence (Q9NZQ7 other isoform, or with tags, fused parts or gaps limits assumed): as the sequence (Q9NZQ7 other isoform, or with tags, fused parts or gaps limits assumed) above

human PD-L1 on cells [6] = biological target: T2, human PD-L1 on cells; assay: cell-based or functional assay; remark: listed apart in the source
hPDL1(19-239)-TVMV-His [7] = biological target: T4, hPDL1(19-239)-TVMV-His (human, UniProt Q9NZQ7 19-239); assay: HTRF competition, PD-1-Ig (20 nM) binding to human PD-L1-His (10 nM)
T4 construct: The construct name says 19-239, the running text says amino acids 18-239; Expressed in HEK293T cells; also called PD-L1-His; PD-L1-TVMV-His
T4 sequence (Q9NZQ7 other isoform, or with tags, fused parts or gaps limits assumed): as above

[8] = biological target: T5, human PD-L1 expressed on cells (human, UniProt Q9NZQ7 19-290); assay: cell binding assay, PE-labeled PD-1-Ig on cells over-expressing human PD-L1, high-content imaging
T5 construct: whole, on cells; In the CMV recall assay PD-L1 is the endogenous protein on donor PBMC; also called hPD-L1; LK35.2-hPD-L1
T5 sequence (Q9NZQ7 19-290): as the sequence (Q9NZQ7 19-290) above

hPDL1(19-239)-TVMV-His [9] = biological target: T6, hPDL1(19-239)-TVMV-His (human, UniProt Q9NZQ7 19-239); assay: HTRF competition, PD-1-Ig binding to PD-L1-His
T6 construct: The text says amino acids 18-239, the construct name says 19-239; also called PD-L1-His; PD-L1-TVMV-His
T6 sequence (Q9NZQ7 other isoform, or with tags, fused parts or gaps limits assumed): as the sequence (Q9NZQ7 other isoform, or with tags, fused parts or gaps limits assumed) above

IC50 (human PD-L1 on cells [4]): 2.69 nM
IC50 (hPDL1(19-239)-TVMV-His [5]): 9.87 nM
CMV Recall EC50; IFNγ secretion by CMV-specific T cells (human PD-L1 on cells [6]): 38.4 nM
B4: Example 13011 (peptide)
peptide: {CH2CO}-Y[NMeA]NPHE[trans‑Pro(4-(4-fluorobenzyl))]W[Dab]W[NMeNle][NMeNle][Dab]CG-NH2
modifications: thioether N-14
SMILES: CCCC[C@H]1C(=O)N(C)[C@@H](CCCC)C(=O)N[C@@H](CCN)C(=O)N[C@H](C(=O)NCC(N)=O)CSCC(=O)N[C@@H](Cc2ccc(O)cc2)C(=O)N(C)[C@@H](C)C(=O)N[C@@H](CC(N)=O)C(=O)N2CCC[C@H]2C(=O)N[C@@H](Cc2c[nH]cn2)C(=O)N[C@@H](CCC(=O)O)C(=O)N2C[C@H](Cc3ccc(F)cc3)C[C@H]2C(=O)N[C@@H](Cc2c[nH]c3ccccc23)C(=O)N[C@@H](CCN)C(=O)N[C@@H](Cc2c[nH]c3ccccc23)C(=O)N1C
notes: X marks Dab and Nle

IC50 (hPDL1(19-239)-TVMV-His [7]): 3 nM
Binder: {CH2CO}-F[NMeF][NMeNle][Sar]DV[NMeF]Y[Sar]WYLCG-{PEG12′-NH2} (thioether N-13) [Compound No. 118]

IC50 [8]: 629 nM
IC50 (hPDL1(19-239)-TVMV-His [9]): 132 nM
B6: Example 3526 (peptide)
peptide: FFXGDVFYGYYLCG
HELM: PEPTIDE1{[O=C(C[*:3])[*:2]].F.[meF].[CCCC[C@@H](C(=O)[*:2])N(C)[*:1]].[Sar].D.V.[meF].Y.[Sar].Y.Y.L.C.G.[am]}$PEPTIDE1,PEPTIDE1,1:R3-14:R3$$$V2.0
SMILES: CCCC[C@H]1C(=O)N(C)CC(=O)N[C@@H](CC(=O)O)C(=O)N[C@@H](C(C)C)C(=O)N(C)[C@@H](Cc2ccccc2)C(=O)N[C@@H](Cc2ccc(O)cc2)C(=O)N(C)CC(=O)N[C@@H](Cc2ccc(O)cc2)C(=O)N[C@@H](Cc2ccc(O)cc2)C(=O)N[C@@H](CC(C)C)C(=O)N[C@H](C(=O)NCC(N)=O)CSCC(=O)N[C@@H](Cc2ccccc2)C(=O)N(C)[C@@H](Cc2ccccc2)C(=O)N1C
notes: ClAc-Phe-[N-Me]Phe-[N-Me]Nle-Sar-Asp-Val-[N-Me]Phe-Tyr-Sar-Tyr-Tyr-Leu-Cys-Gly-NH2, cyclised

IC50 (human PD-L1 on cells [4]): 1.47 nM
IC50 (hPDL1(19-239)-TVMV-His [5]): 4.11 nM
CMV Recall EC50; IFNγ secretion by CMV-specific T cells (human PD-L1 on cells [6]): 27.2 nM
B7: Example 13006 (peptide)
peptide: {CH2CO}-Y[NMeA]DPHK[Pro(cis-4-Ph)]WKW[NMeNle][NMeNle]ECG-NH2
modifications: thioether N-14
SMILES: CCCC[C@H]1C(=O)N(C)[C@@H](CCCC)C(=O)N[C@@H](CCC(=O)O)C(=O)N[C@H](C(=O)NCC(N)=O)CSCC(=O)N[C@@H](Cc2ccc(O)cc2)C(=O)N(C)[C@@H](C)C(=O)N[C@@H](CC(=O)O)C(=O)N2CCC[C@H]2C(=O)N[C@@H](Cc2c[nH]cn2)C(=O)N[C@@H](CCCCN)C(=O)N2C[C@@H](c3ccccc3)C[C@H]2C(=O)N[C@@H](Cc2c[nH]c3ccccc23)C(=O)N[C@@H](CCCCN)C(=O)N[C@@H](Cc2c[nH]c3ccccc23)C(=O)N1C
notes: X marks Nle

Continued, binder first:

B1: Compound No. 99 (peptide)
peptide: {CH2CO}-FLIVIRDRVFRCG-NH2
modifications: thioether N-12
notes: Macrocyclic peptide; parent of the Formula III series
IC50 (hPDL1(19-239)-TVMV-His [1]): 153 nM
IC50 (hPDL1(19-239)-TVMV-His [2]): 153 nM

B2: Compound No. 111 (peptide)
peptide: FLIVIRDRFFRCG
HELM: PEPTIDE1{[O=C(C[*:3])[*:2]].F.L.I.V.I.R.D.R.F.F.R.C.G.[am]}$PEPTIDE1,PEPTIDE1,1:R3-13:R3$$$V2.0
SMILES: CC[C@H](C)[C@@H]1NC(=O)[C@H](CC(C)C)NC(=O)[C@H](Cc2ccccc2)NC(=O)CSC[C@@H](C(=O)NCC(N)=O)NC(=O)[C@H](CCCNC(=N)N)NC(=O)[C@H](Cc2ccccc2)NC(=O)[C@H](Cc2ccccc2)NC(=O)[C@H](CCCNC(=N)N)NC(=O)[C@H](CC(=O)O)NC(=O)[C@H](CCCNC(=N)N)NC(=O)[C@H]([C@@H](C)CC)NC(=O)[C@H](C(C)C)NC1=O
notes: Macrocyclic variant of Compound No. 99
IC50 (hPDL1(19-239)-TVMV-His [2]): 540 nM

Binder: {CH2CO}-FLIVIRDRVFRCG-NH2 (thioether N-12)
IFNγ secretion by CMV-specific T cells (ELISA), EC50 (human PD-L1 on cells [3]): > 10000 nM

B3: Compound No. 2 (peptide)
peptide: {CH2CO}-F[NMeA]NPHHSWRW[NMeNle][NMeNle]LCG-NH2
modifications: thioether N-14
SMILES: CCCC[C@H]1C(=O)N(C)[C@@H](CCCC)C(=O)N[C@@H](CC(C)C)C(=O)N[C@H](C(=O)NCC(N)=O)CSCC(=O)N[C@@H](Cc2ccccc2)C(=O)N(C)[C@@H](C)C(=O)N[C@@H](CC(N)=O)C(=O)N2CCC[C@H]2C(=O)N[C@@H](Cc2c[nH]cn2)C(=O)N[C@@H](Cc2c[nH]cn2)C(=O)N[C@@H](CO)C(=O)N[C@@H](Cc2c[nH]c3ccccc23)C(=O)N[C@@H](CCCNC(=N)N)C(=O)N[C@@H](Cc2c[nH]c3ccccc23)C(=O)N1C
IFNγ secretion by CMV-specific T cells (ELISA), EC50 (human PD-L1 on cells [3]): 400 nM

Binder: {CH2CO}-F[NMeA]NPHHSWRW[NMeNle][NMeNle]LCG-{PEG12′-NH2} (thioether N-14) [Compound No. 117]
IC50 (hPDL1(19-239)-TVMV-His [7]): 21 nM

B5: Compound No. 71 (peptide)
peptide: FFXGDVFYGWYLCG
HELM: PEPTIDE1{[O=C(C[*:3])[*:2]].F.[meF].[CCCC[C@@H](C(=O)[*:2])N(C)[*:1]].[Sar].D.V.[meF].Y.[Sar].W.Y.L.C.G.[am]}$PEPTIDE1,PEPTIDE1,1:R3-14:R3$$$V2.0
SMILES: CCCC[C@H]1C(=O)N(C)CC(=O)N[C@@H](CC(=O)O)C(=O)N[C@@H](C(C)C)C(=O)N(C)[C@@H](Cc2ccccc2)C(=O)N[C@@H](Cc2ccc(O)cc2)C(=O)N(C)CC(=O)N[C@@H](Cc2c[nH]c3ccccc23)C(=O)N[C@@H](Cc2ccc(O)cc2)C(=O)N[C@@H](CC(C)C)C(=O)N[C@H](C(=O)NCC(N)=O)CSCC(=O)N[C@@H](Cc2ccccc2)C(=O)N(C)[C@@H](Cc2ccccc2)C(=O)N1C
notes: Macrocyclic peptide; X stands for norleucine
IC50 (hPDL1(19-239)-TVMV-His [1]): 7 nM

Binder: {CH2CO}-F[NMeA]NPHL[Sar]WSW[NMeNle][NMeNle]RCG-{PEG12′-NH2} (thioether N-14) [Compound No. 116]
IC50 (hPDL1(19-239)-TVMV-His [7]): 21 nM

Source: US20140294898A1 (published 2014)
